For assay [1], the target named is Bio-cyBCMA-His (biotinylated cynomolgus BCMA with His tag) (cynomolgus). Kind of assay: ELISA, scFv periplasmic extract on biotinylated cynomolgus BCMA-His.
Another assay deals with T1, hBCMA-mIgG2a (human; mouse, UniProt Q02223 1-54, limits assumed).
T1 construct: not shown: mouse IgG2a portion ('mIgG2a')
T1 sequence: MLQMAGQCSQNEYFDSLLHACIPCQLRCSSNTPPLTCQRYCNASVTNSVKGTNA
Kind of assay: Octet (BLI), hBCMA-mIgG2a captured on sensor tips. (In general: Biolayer interferometry detects binding as a change in optical thickness at a sensor tip.)

Assay [2] has as its target T2, human BCMA on BCMA overexpressing CHO cells (human, UniProt Q02223 1-184).
T2 construct: also called hBCMA CHO; Hu BCMA (FACS)
T2 chain: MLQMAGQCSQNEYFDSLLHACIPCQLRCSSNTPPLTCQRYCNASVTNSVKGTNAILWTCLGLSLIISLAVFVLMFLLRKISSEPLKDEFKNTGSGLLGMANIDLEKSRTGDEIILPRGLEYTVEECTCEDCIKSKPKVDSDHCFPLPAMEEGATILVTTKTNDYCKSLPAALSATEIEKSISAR
Kind of assay: flow cytometry on human BCMA overexpressing CHO cells. For orientation: Flow cytometry measures light scatter and fluorescence of single cells or particles in a stream.

For a further assay, the target named is T3, hBCMA-HIS antigen (human, UniProt Q02223 1-54).
T3 construct: It may be the same protein as Bio-huBCMA-His without, or with, biotin; also called human BCMA-6His; not shown: His tag
T3 sequence: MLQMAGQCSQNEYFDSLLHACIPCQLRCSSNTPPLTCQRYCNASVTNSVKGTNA
Kind of assay: Octet (BLI), hBCMA-HIS antigen captured on sensor tips.

The target of assay [3] is T4, human BCMA protein (Octet; construct not stated) (human, UniProt Q02223 1-54, limits assumed).
T4 sequence: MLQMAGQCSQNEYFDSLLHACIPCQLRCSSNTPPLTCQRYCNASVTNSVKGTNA
Kind of assay: Octet (BLI), scFv periplasmic extract, human BCMA captured on sensor tips.

A value given as a limit tells only on which side of the number the result lay.

Chain of Bio-cyBCMA-His (biotinylated cynomolgus BCMA with His tag) (cynomolgus) (chain, as listed by the source): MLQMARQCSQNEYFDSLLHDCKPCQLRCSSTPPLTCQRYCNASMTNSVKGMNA

B1: anti-BCMA scFv clone from phage display, first row of Table 3 (VH …..., VL with LCDR3 …) (scFv, V domains shown)
VH: QITLRESGGDVVQPGRSLRLSCAASGFTFSSYAIHWVRQAPGKGLEWVAVTWHDGSNKYYAESVMGRFTISRDNSKNTLYLHMNSLRAEDTGVYYCARAKFGEPQYFQHWGQGTLVTVSS
VL: DIVMTQSPSFLSASVGDRVTITCRASQGISSYLAWYQQKPGKAPKLLIYAASTLQSGVPSRFSGSGSGTEFTLTISSLQPEDFATYYCQQLNSYPWTFGQGTKVDIK
The molecule B1 showed a PE Elisa Bio-cyBCMA-His in assay [1] of 0.147.

B2: Ab 2, lead anti-BCMA clone of Table 4 (antibody, V domains shown)
VH: QITLRESGGDVVQPGRSLRLSCAASGFTFSSYAIHWVRQAPGKGLEWVAVTWHDGSNKYYAESVMGRFTISRDNSKNTLYLHMNSLRAEDTGVYYCARAKFGEPQYFQHWGQGTLVTVSS
VL: DIVMTQSPSFLSASVGDRVTITCRASQGINNYLAWYQQKPGIAPKLLIYAASTLQSGVPSRFGGSGSGTEFTLTISSLQPEDFATYYCQQLKSYPFTFGPGTKVEIK
In the assay with hBCMA-mIgG2a, B2 gave an equilibrium dissociation constant (Kd) of 0.0117 nM, a koff of 4.44e-06 s⁻¹ and an association rate constant (kon) of 379000 M⁻¹ s⁻¹. Further, the EC50 in assay [2] was found to be 0.144 µg/mL. In the assay with hBCMA-HIS antigen, this molecule had a Kd of 0.0788 nM, a koff of 3.77e-05 s⁻¹ and a kon of 479000 M⁻¹ s⁻¹.

B3: anti-BCMA scFv clone from phage display, second row of Table 3 (VH …..., VL with LCDR3 …) (scFv, V domains shown)
VH: QITLRESGGDVVQPGRSLRLSCAASGFTFSSYAIHWVRQAPGKGLEWVAVTWHDGSNKYYAESVMGRFTISRDNSKNTLYLHMNSLRAEDTGVYYCARAKFGEPQYFQHWGQGTLVTVSS
VL: DIVMTQSPSFLSASVGDRVTITCRASQGINNYLAWYQQKPGIAPKLLIYAASTLQSGVPSRFGGSGSGTEFTLTISSLQPEDFATYYCQQLKSYPFTFGPGTKVEIK
For B3, the PE Elisa Bio-cyBCMA-His in assay [1] is 0.122.

B4: anti-BCMA scFv clone from phage display, third row of Table 3 (VH …..., VL with LCDR3 …) (scFv, V domains shown)
VH: EVQLVESGGDVVQPGRSLRLSCAASGFTFSSYAIHWVRQAPGKGLEWVAVTWHDGSNKYYAESVMGRFTISRDNSKNTLYLHMNSLRAEDTGVYYCARAKFGEPQYFQHWGQGTTVTVSS
VL: DIVMTQSPSFLSASVGDRVTITCRASQGISSYLAWYQQKPGKAPKLLIYAASTLQSGVPSRFSGSGSGTEFTLTISSLQPEDFATYYCQQLNSYPFTFGPGTKVDIK
B4 gave a PE Elisa Bio-cyBCMA-His in assay [1] of 0.126.

B5: anti-BCMA scFv clone from phage display, first row of Table 3 (VH QITLRESGG..., VL with LCDR3 QQLNSYPWT) (scFv, V domains shown)
VH: QITLRESGGDVVQPGRSLRLSCAASGFTFSSYAIHWVRQAPGKGLEWVAVTWHDGSNKYYAESVMGRFTISRDNSKNTLYLHMNSLRAEDTGVYYCARAKFGEPQYFQHWGQGTLVTVSS
VL: DIVMTQSPSFLSASVGDRVTITCRASQGISSYLAWYQQKPGKAPKLLIYAASTLQSGVPSRFSGSGSGTEFTLTISSLQPEDFATYYCQQLNSYPWTFGQGTKVDIK
notes: Tested as scFv in periplasmic extract; also called Ab 1
For the molecule B5, in assay [3], the koff worked out at 0.000369 s⁻¹.

B6: Ab 3, lead anti-BCMA clone of Table 4 (antibody, V domains shown)
VH: EVQLVESGGDVVQPGRSLRLSCAASGFTFSSYAIHWVRQAPGKGLEWVAVTWHDGSNKYYAESVMGRFTISRDNSKNTLYLHMNSLRAEDTGVYYCARAKFGEPQYFQHWGQGTTVTVSS
VL: DIVMTQSPSFLSASVGDRVTITCRASQGISSYLAWYQQKPGKAPKLLIYAASTLQSGVPSRFSGSGSGTEFTLTISSLQPEDFATYYCQQLNSYPFTFGPGTKVDIK
On to B6, for which, in the assay with hBCMA-mIgG2a, the Kd is less than 0.001 nM, the koff was less than 1e-07 s⁻¹ and the kon came out at 308000 M⁻¹ s⁻¹. In assay [2], this molecule yielded a concentration for a half-maximal effect (EC50) of 0.117 µg/mL. In the assay with hBCMA-HIS antigen, this molecule showed a Kd of 0.0608 nM, a koff of 1.33e-05 s⁻¹ and a kon of 219000 M⁻¹ s⁻¹.

By Kd is commonly meant the concentration at which binding is half-saturated. Read a high Kd as a looser complex. In general, koff refers to the rate constant with which the complex falls apart. The low end stands for a long-lived complex, the high end for a short-lived complex. Broadly, the kon is the rate constant with which the complex forms. High values mean fast association, low ones slow association. A word on the EC50: it is the concentration that produces a half-maximal response.

The record behind these values is patent US20240350544A1 (Takeda / Millennium, published 2024).
